{"source": "FireProtDB (doi:10.1021/bi201253b)", "proteins": {"B1": {"name": "wild type, A5H7H0 (protein)", "chain": "MQLQNFLSIVLLVVSGAIAGTVMDHDKIAKLPASGSPLETKFQPQLHIGNGCHSYPAVDAQGNWSGGLKPTGAPSAACKDTSKAQTYVRSATFQGKTALVYAWYMPKDEISTGIGHRHDWEGAVVFLNSDTQQIDGVAASAHGKWRKYPNPGGANIDDTHVKLQYSAEPVINSHALDLTDKGGDLPTLASWEGMGADARAAINERSHWGDANPPIADSLIGSSLSGAWMW"}}, "conditions": "Moniliophthora perniciosa, pH 7.2, Thermal, CD, sodium phosphate buffer 4mM, whole UniProt chain shown", "data": [{"protein": "B1", "values": [{"measurement": "Tm", "setting": "EDTA CaCl2 62.5 micro M 120 micro M", "result": 41.6, "unit": "°C"}, {"measurement": "Tm", "setting": "EDTA CaCl2 with ZnCl2 62.5 micro M 120 micro M 120 micro M", "result": 40, "unit": "°C"}, {"measurement": "Tm", "setting": "EDTA ZnCl2 62.5 micro M 120 micro M", "result": 41.2, "unit": "°C"}]}]}
